Here are results for 15 molecules from patent US20240116985A1 (published 2024).

T1: beta-catenin in DLD1 TCF/LEF luciferase reporter cells (UniProt P35222 1-781)
T1 sequence (looked up): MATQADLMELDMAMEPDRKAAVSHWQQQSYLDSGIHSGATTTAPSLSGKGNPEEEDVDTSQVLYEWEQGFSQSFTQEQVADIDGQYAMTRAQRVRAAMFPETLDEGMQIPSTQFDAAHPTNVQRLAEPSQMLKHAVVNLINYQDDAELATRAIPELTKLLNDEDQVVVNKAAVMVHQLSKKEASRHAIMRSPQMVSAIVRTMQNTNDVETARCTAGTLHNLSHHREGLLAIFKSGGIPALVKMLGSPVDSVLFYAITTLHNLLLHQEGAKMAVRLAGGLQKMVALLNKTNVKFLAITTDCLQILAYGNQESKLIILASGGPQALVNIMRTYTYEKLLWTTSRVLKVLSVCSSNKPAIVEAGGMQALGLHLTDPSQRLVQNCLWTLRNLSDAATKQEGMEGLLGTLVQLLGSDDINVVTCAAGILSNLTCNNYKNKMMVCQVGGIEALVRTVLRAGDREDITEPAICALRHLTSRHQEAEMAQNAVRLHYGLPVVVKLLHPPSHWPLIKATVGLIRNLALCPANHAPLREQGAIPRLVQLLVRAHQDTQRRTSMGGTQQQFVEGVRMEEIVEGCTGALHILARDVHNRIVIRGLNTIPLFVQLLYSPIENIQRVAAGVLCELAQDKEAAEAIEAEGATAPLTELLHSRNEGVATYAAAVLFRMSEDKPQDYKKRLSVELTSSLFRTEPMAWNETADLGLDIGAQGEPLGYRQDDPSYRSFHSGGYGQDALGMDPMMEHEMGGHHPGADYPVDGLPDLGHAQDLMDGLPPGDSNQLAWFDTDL

T2: B-cat-Halo (beta-catenin HaloTag NanoBRET construct expressed in HEK293 cells) (UniProt P35222 1-781)
T2 sequence (looked up): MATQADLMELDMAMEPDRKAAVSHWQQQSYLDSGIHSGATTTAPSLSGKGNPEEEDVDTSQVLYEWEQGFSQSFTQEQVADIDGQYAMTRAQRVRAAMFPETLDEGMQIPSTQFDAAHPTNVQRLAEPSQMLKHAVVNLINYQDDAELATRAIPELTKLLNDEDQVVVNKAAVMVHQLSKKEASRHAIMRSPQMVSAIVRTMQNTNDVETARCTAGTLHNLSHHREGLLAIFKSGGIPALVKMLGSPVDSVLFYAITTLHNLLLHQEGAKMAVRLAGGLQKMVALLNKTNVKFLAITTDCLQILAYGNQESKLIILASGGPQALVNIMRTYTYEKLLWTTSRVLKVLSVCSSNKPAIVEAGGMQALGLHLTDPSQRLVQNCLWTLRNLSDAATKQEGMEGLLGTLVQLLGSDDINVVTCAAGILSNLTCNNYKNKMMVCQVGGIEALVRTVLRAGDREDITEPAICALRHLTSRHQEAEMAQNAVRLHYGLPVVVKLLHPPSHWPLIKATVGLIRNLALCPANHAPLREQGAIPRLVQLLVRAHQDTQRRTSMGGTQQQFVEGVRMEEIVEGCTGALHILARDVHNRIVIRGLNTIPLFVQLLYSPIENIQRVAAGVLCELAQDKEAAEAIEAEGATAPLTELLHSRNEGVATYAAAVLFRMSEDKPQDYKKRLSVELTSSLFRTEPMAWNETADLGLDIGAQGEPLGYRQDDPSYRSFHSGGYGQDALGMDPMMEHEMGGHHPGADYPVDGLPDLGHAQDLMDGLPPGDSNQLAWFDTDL

Starred links: 1 amine or outer side, 2 acyl side, 3 side chain; linkers in the order of their positions; H or OH if unused. Positions of bridges follow the written chain, without caps; N, C: chain ends. Non-standard residues stand in square brackets, D forms with d. Primed or numbered codes have the meaning given here. PyrS2″ = (S)-3-amino-1-((pent-4-en-1-yloxy)carbonyl)pyrrolidine-3-carboxylic acid (stapling residue), C=CCCCOC(=O)N1CC[C@@](N[*:1])(C(=O)[*:2])C1; B5(18) = 2,2-bis(4-pentenyl)glycine (2-amino-2-(pent-4-en-1-yl)hept-6-enoic acid), stitching residue, C=CCCCC(CCCC=C)(N[*:1])C(=O)[*:2]; TfeGA = (S)-2-amino-3-((carboxymethyl)(2,2,2-trifluoroethyl)amino)propanoic acid, O=C([C@H](CN(CC(=O)[*:3])CC(F)(F)F)N[*:1])[*:2]; B5(3) = 2,2-bis(4-pentenyl)glycine (stitching residue), C=CCCCC(CCCC=C)(N[*:1])C(=O)[*:2]; Phe(3-COOH) = N[C@@H](Cc1cccc(C(=O)O)c1)C(=O)O; Phe(2-CF3) = N[C@@H](Cc1ccccc1C(F)(F)F)C(=O)O; Phe(2-Cl) = N[C@@H](Cc1ccccc1Cl)C(=O)O; Bta = N[C@@H](Cc1csc2ccccc12)C(=O)O; αAllylPro = C=CC[C@@]1(C(=O)O)CCCN1; tBuAla = CC(C)(C)C[C@H](N)C(=O)O; 3Thi = N[C@@H](Cc1ccsc1)C(=O)O; S8 = C=CCCCCCC[C@](C)(N)C(=O)O; hSer = N[C@@H](CCO)C(=O)O; Aib = CC(C)(N)C(=O)O

The first test addresses T1, beta-catenin in DLD1 TCF/LEF luciferase …. The experiment in a line: cell-based or functional assay.
Regarding Ac-[αAllylPro]D[tBuAla][B5(18)]D[TfeGA]KAFN[PyrS2″][Phe(2-Cl)][Bta]Q-NH2 (staple 1-4, 4-11) [I-1011], the “DLD1 reporter assay Abs IC50” value is over 20 µM.

Ac-[αAllylPro]D[tBuAla][B5(18)]DNAAFT[PyrS2″][Phe(2-Cl)][Bta]S-NH2 (staple 1-4, 4-11) [I-1016]: the “DLD1 reporter assay Abs IC50” value was determined as 21.4 µM.

In the case of Ac-[αAllylPro]D[tBuAla][B5(18)]D[TfeGA]ASFN[PyrS2″][Phe(2-Cl)][Bta]Q-NH2 (staple 1-4, 4-11) [I-1004], the “DLD1 reporter assay Abs IC50” value was over 20 µM.

On to Ac-[αAllylPro]D[tBuAla][B5(3)]D[TfeGA]AAFS[S8][Phe(2-Cl)][Bta][hSer]-NH2 (staple 1-4, 4-11; also: later eluting isomer) [I-999], for which the “DLD1 reporter assay Abs IC50” value was 11.1 µM.

Turning to Ac-[αAllylPro]D[tBuAla][B5(18)]D[TfeGA]LAFN[PyrS2″][Phe(2-Cl)][Bta]Q-NH2 (staple 1-4, 4-11) [I-1007], the “DLD1 reporter assay Abs IC50” value stood at 3.3 µM.

On to Ac-[αAllylPro]D[tBuAla][B5(3)][3Thi][TfeGA]AAFN[PyrS2″]D[Bta]Q-NH2 (staple 1-4, 4-11) [I-1001], for which the “DLD1 reporter assay Abs IC50” value was over 20 µM.

For the molecule Ac-[αAllylPro]D[tBuAla][B5(18)]D[TfeGA]FAFN[PyrS2″][Phe(2-Cl)][Bta]Q-NH2 (staple 1-4, 4-11) [I-1008], the “DLD1 reporter assay Abs IC50” value stood at 13 µM.

Turning to Ac-[αAllylPro]D[tBuAla][B5(18)]DDAAFS[PyrS2″][Phe(2-Cl)][Bta]Q-NH2 (staple 1-4, 4-11) [I-1017], the “DLD1 reporter assay Abs IC50” value is over 20 µM.

Ac-[αAllylPro]D[tBuAla][B5(3)]D[TfeGA]AAF[hSer][S8][Phe(2-Cl)][Bta][hSer]-NH2 (staple 1-4, 4-11) [I-1000]: the “DLD1 reporter assay Abs IC50” value came to 8 µM.

Regarding Ac-[αAllylPro]D[tBuAla][B5(18)]DDAAFT[PyrS2″][Phe(2-Cl)][Bta]S-NH2 (staple 1-4, 4-11) [I-1015], the “DLD1 reporter assay Abs IC50” value stood at 9 µM.

Consider Ac-[αAllylPro]D[tBuAla][B5(18)]D[TfeGA]ALFN[PyrS2″][Phe(2-Cl)][Bta]Q-NH2 (staple 1-4, 4-11) [I-1002], for which the “DLD1 reporter assay Abs IC50” value is over 20 µM.

Another test concerns the target T2, B-cat-Halo (beta-catenin HaloTag …). The experiment in a line: cell-based or functional assay.
Regarding Ac-[αAllylPro]D[tBuAla][B5(3)]D[Phe(3-COOH)]QAFL[PyrS2″][Phe(2-CF3)][2F3MeW]A-NH2 (staple 1-4, 4-11) [Ac-PL3-Asp-Npg-B5-Asp-3COOHF-Gln-Ala-Phe-Leu-PyrS2-2F3MeF-2F3MeW-Ala-NH2], the “NanoBRET Abs IC50” value was over 20 µM.

Take Ac-[αAllylPro]D[tBuAla][B5(3)]NT[Aib]AFN[PyrS2″][3Thi][Bta]K-NH2 (staple 1-4, 4-11) [Ac-PL3-Asp-Npg-B5-Asn-Thr-Aib-Ala-Phe-Asn-PyrS2-3Thi-BztA-Lys-NH2]: the “NanoBRET Abs IC50” value is over 20 µM.

For the molecule Ac-[αAllylPro]D[tBuAla][B5(3)]D[Phe(3-COOH)]AAFL[PyrS2″][Phe(2-CF3)][2F3MeW]Q-NH2 (staple 1-4, 4-11) [Ac-PL3-Asp-Npg-B5-Asp-3COOHF-Ala-Ala-Phe-Leu-PyrS2-2F3MeF-2F3MeW-Gln-NH2], the “NanoBRET Abs IC50” value was over 20 µM.

For the molecule Ac-[αAllylPro]D[tBuAla][B5(3)]NT[Aib]AFN[PyrS2″][3Thi][Bta]Y-NH2 (staple 1-4, 4-11) [Ac-PL3-Asp-Npg-B5-Asn-Thr-Aib-Ala-Phe-Asn-PyrS2-3Thi-BztA-Tyr-NH2], the “NanoBRET Abs IC50” value is over 20 µM.
